Measurements from patent US20200392228A1 (PANDION OPERATIONS, published 2020).
Where a chain is given by its changes, count along the chain named.

T1: human MAdCAM expressed on cells (human, UniProt Q13477 19-382)
T1 construct: whole, on cells; also called MADCAM1
T1 sequence (looked up): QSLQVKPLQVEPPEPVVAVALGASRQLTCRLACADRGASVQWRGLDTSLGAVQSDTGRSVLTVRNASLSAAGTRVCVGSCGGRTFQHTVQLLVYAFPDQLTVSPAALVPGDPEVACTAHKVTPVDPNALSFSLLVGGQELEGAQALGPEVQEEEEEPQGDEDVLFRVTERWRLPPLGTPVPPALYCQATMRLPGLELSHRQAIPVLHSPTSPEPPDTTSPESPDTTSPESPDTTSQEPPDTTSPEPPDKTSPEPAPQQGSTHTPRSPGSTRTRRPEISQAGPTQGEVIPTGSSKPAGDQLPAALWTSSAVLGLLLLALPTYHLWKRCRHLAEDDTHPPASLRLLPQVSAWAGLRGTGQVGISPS

T2: mouse MAdCAM expressed on cells (mouse, UniProt Q61826 22-405)
T2 construct: whole, on cells
T2 sequence (looked up): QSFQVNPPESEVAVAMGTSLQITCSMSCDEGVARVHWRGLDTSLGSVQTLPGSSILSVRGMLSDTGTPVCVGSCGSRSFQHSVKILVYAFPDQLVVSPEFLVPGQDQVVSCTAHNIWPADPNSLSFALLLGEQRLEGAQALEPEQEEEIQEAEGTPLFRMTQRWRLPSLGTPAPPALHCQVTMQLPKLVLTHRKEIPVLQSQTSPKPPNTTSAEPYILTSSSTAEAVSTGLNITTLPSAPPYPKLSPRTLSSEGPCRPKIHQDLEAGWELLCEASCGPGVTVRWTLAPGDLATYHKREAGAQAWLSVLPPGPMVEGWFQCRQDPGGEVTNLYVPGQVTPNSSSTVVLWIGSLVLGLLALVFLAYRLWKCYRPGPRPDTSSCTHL

B1: MAdCAM antibody Clone ID 44 of Table 6 (scFv) (scFv)
scFv: EVQLVESGGGLVKPGGSLRLSCAASGFTFSSYWMSWVRQAPGKGLEWVSAIGTGGGTYYAAPVKGRFTISRDDSKNTLYLQMNSLKTEDTAVYYCAREWLVPYYGMDVWGQGTTVTVSSGGGGSGGGGSGGGGSGGGGSDIQMTQSPSSLSASVGDRVTITCRASQSISRWLAWYQQKPGKAPKLLIYGASNLQSGVPSRFSGSGSGTDFTLTISSLQPEDFATYYCQQSYSTPWTFGQGTKVEIK
B2: MAdCAM antibody Clone ID 50 of Table 6 (scFv) (scFv)
scFv: QVQLVQSGAEVKKPGASVKVSCKASGYTFTSYDINWVRQAPGQGLEWMGWINPNSGTTGYAQKFQGRVTMTRDTSTSTVYMELSSLRSEDTAVYYCARSPYYYYGMDVWGQGTTVTVSSGGGGSGGGGSGGGGSGGGGSDIQMTQSPSSLSASVGDRVTITCRASHFISRWVAWYQQKPGKAPKLLIYAASTLQSGVPSRFSGSGSGTDFTLTISSLQPEDFATYYCQQSYSGISFGPGTKVDIK
B3: MAdCAM antibody Clone ID 3 of Table 6 (scFv) (scFv)
scFv: QVQLVQSGAEVKKPGASVKVSCKASGYPFIGQYLHWVRQAPGQGLEWMGIINPSGGSTSYAQKFQGRVTMTRDTSTSTVYMELSSLRSEDTAVYYCAREGRLSYGMDAWGQGTLVTVSSGGGGSGGGGSGGGGSGGGGSDIQMTQSPSSLSASVGDRVTITCRASQSISSYLAWYQQKPGKAPKLLIYGASTLESGVPSRFSGSGSGTDFTLTISSLQPEDFATYYCQQTWGPPFTFGQGTKLEIK
B4: MAdCAM antibody Clone ID 43 of Table 6 (scFv) (scFv)
scFv: EVQLLESGGGLVQPGGSLRLSCAASGFTFDDFAMHWVRQAPGKGLEWVSGISGNGDSRYYADSVKGRFTISRDNSKNTLYLQMNSLRAEDTAVYYCARDASYGGNYGMDVWGQGTTVTVSSGGGGSGGGGSGGGGSGGGGSDIQMTQSPSSLSASVGDRVTITCQASQDIRNYLNWYQQKPGKAPKLLIYKASTLESGVPSRFSGSGSGTDFTLTISSLQPEDFATYYCQQANSFPLTFGPGTKVDIK
B5: MAdCAM antibody Clone ID 45 of Table 6 (scFv) (scFv)
scFv: EVQLLESGGGLVQPGGSLRLSCAASGFSVSSNYMSWVRQAPGKGLEWVAGISYDGSSKPYADSVKGRFTISRDNSKNTLYLQMNSLRAEDTAVYYCARSRGIAARPLQHWGQGTLVTVSSGGGGSGGGGSGGGGSGGGGSDIVMTQSPDSLAVSLGERATINCKSSQSVLYSSNNKNYLAWYQQKPGQPPKLLIYWASTRQSGVPDRFSGSGSGTDFTLTISSLQAEDVAVYYCHQYYGHPPTFGGGTKVEIK
B6: MAdCAM antibody Clone ID 46 of Table 6 (scFv) (scFv)
scFv: B5 scFv with W196Q
B7: MAdCAM antibody Clone ID 49 of Table 6 (scFv) (scFv)
scFv: QVQLVQSGAEVKKPGASVKVSCKASGDTFTGYYIHWVRQAPGQGLEWMGWINPNSGGTNYAQKFQGRVTMTRDTSTSTVYMELSSLRSEDTAVYYCARSGLWLGSYYGMDVWGQGTLVTVSSGGGGSGGGGSGGGGSGGGGSDIQMTQSPSSLSASVGDRVTITCRASQTISIWLAWYQQKPGKAPKLLIYDASTLQSGVPSRFSGSGSGTDFTLTISSLQPEDFATYYCQQYSSYPLTFGQGTKVEIK
B8: MAdCAM antibody Clone ID 52 of Table 6 (scFv) (scFv)
scFv: EVQLLESGGGLVQPGGSLRLSCAASGFTFSNSDMNWVRQAPGKGLEWVAHIWNDGSQKYYADSVKGRFTISRDNSKNTLYLQMNSLRAEDTAVYYCARDRTDPGYSSAMDVWGQGTTVTVSSGGGGSGGGGSGGGGSGGGGSDIQMTQSPSSLSASVGDRVTITCRASQDIRNYLGWYQQKPGKAPKLLIYDASSLETGVPSRFSGSGSGTDFTLTISSLQPEDFATYYCQQATSLPLTFGGGTKVEIK
B9: MAdCAM antibody Clone ID 42 of Table 6 (scFv) (scFv)
scFv: QVQLVQSGAEVKKPGSSVKVSCKASGGTLSRYGVSWVRQAPGQGLEWMGGIIPIFGTTNYAQKFQGRVTITADESTSTAYMELSSLRSEDTAVYYCARDRVYYDSSGYPTWYFDLWGRGTLVTVSSGGGGSGGGGSGGGGSGGGGSEIVMTQSPATLSVSPGERATLSCRASQSVSSSYLAWYQQKPGQAPRLLIYGASTRATGIPARFSGSGSGTEFTLTISSLQSEDFAVYYCQQYGSSPITFGQGTKVEIK
B10: MAdCAM antibody Clone ID 48 of Table 6 (scFv) (scFv)
scFv: EVQLLESGGGLVQPGGSLRLSCAASGFTFSDHGMHWVRQAPGKGLEWVSVIYGGESTYYADSVKGRFTISRDNSKNTLYLQMNSLRAEDTAVYYCARDPAVAGGGIFDYWGQGTLVTVSSGGGGSGGGGSGGGGSGGGGSDIQMTQSPSSLSASVGDRVTITCRASQGISNYLAWYQQKPGKAPKLLIYDASNLETGVPSRFSGSGSGTDFTLTISSLQPEDFATYYCQQSYSTCYTFGQGTKLEIK
B11: MAdCAM antibody Clone ID 51 of Table 6 (scFv) (scFv)
scFv: EVQLLESGGGLVQPGGSLRLSCAASGFTFNNYGMNWVRQAPGKGLEWVSRINSDGSSTSYADSVKGRFTISRDNSKNTLYLQMNSLRAEDTAVYYCARGAYYYYYMDVWGQGTLVTVSSGGGGSGGGGSGGGGSGGGGSEIVMTQSPATLSVSPGERATLSCRASQSVSGSYLAWYQQKPGQAPRLLIYATSSRASGIPARFSGSGSGTEFTLTISSLQSEDFAVYYCQQYYSGLTFGQGTKVEIK
B12: MAdCAM antibody Clone ID 40 of Table 6 (scFv) (scFv)
scFv: QVQLVQSGAEVKKPGASVKVSCKASGYTFTSYGISWVRQAPGQGLEWMGIINPRGGSTIFAQKFQGRVTMTRDTSTSTVYMELSSLRSEDTAVYYCARGTRSSGWYGWFDPWGQGTLVTVSSGGGGSGGGGSGGGGSGGGGSDIQMTQSPSSLSASVGDRVTITCRASQGIGNWLAWYQQKPGKAPKLLIYAASNLETGVPSRFSGSGSGTDFTLTISSLQPEDFATYYCQQIHSYPLTFGGGTKVEIK
B13: MAdCAM antibody Clone ID 12 of Table 6 (scFv) (scFv)
scFv: QVQLVQSGAEVKKPGASVKVSCKASGYTFTGYYMHWVRQAPGQGLEWMGWIGPNSGDTNYAQKFQGRVTMTRDTSTSTVYMELSSLRSEDTAVYYCARDLDHNWYFDLWGRGTLVTVSSGGGGSGGGGSGGGGSGGGGSDIVMTQSPLSLPVTPGEPASISCRSSQSLLHSNGYNYLDWYLQKPGQSPQLLIYSSSNRAPGVPDRFSGSGSGTDFTLKISRVEAEDVGVYYCMQALHIPLTFGGGTKVEIK
B14: MAdCAM antibody Clone ID 56 of Table 6 (scFv) (scFv)
scFv: EVQLLESGGGLVQPGGSLRLSCAASGFTFDDYAMHWVRQAPGKGLEWVSAISGGGEDTYYADSVKGRFTISRDNSKNTLYLQMNSLRAEDTAVYYCARDASYGGNYGMDVWGQGTTVTVSSGGGGSGGGGSGGGGSGGGGSDIQMTQSPSSLSASVGDRVTITCQASQDIRNYLNWYQQKPGKAPKLLIYKASSLESGVPSRFSGSGSGTDFTLTISSLQPEDFATYYCQQANSYPVTFGGGTKVEIK
B15: MAdCAM antibody Clone ID 25 of Table 6 (scFv) (scFv)
scFv: QVQLVQSGAEVKKPGASVKVSCKASGYTLTTWYMYWVRQAPGQGLEWMGWINPNRGATNYAQKFQGRVTMTRDTSTSTVYMELSSLRSEDTAVYYCAKGDLWGAMDVWGQGTLVTVSSGGGGSGGGGSGGGGSGGGGSDIQMTQSPSSLSASVGDRVTITCRASDNIGSWLAWYQQKPGKAPKLLIYAASSLQSGVPSRFSGSGSGTDFTLTISSLQPEDFATYYCQQGYSTPPTFGQGTKVEIK
B16: MAdCAM antibody Clone ID 30 of Table 6 (scFv) (scFv)
scFv: B15 scFv
B17: MAdCAM antibody Clone ID 47 of Table 6 (scFv) (scFv)
scFv: EVQLLESGGGLVQPGGSLRLSCAASGFSFSDYGMHWVRQAPGKGLEWVSAISGSGGSTYYADSVKGRFTISRDNSKNTLYLQMNSLRAEDTAVYYCARDGGWQPAAILDYWGQGTLVTVSSGGGGSGGGGSGGGGSGGGGSDIQMTQSPSSLSASVGDRVTITCRASQGISNNLNWYQQKPGKAPKLLIYDASNLETGVPSRFSGSGSGTDFTLTISSLQPEDFATYYCQQSYSTPLTFGGGTKVEIK
B18: MAdCAM antibody Clone ID 27 of Table 7 (IgG) (antibody, V domains shown)
VH: EVQLLESGGGLVQPGGSLRLSCAASGFTFSSYQMSWVRQAPGKGLEWVSYISSSSTYTNYADSVKGRFTISRDNSKNTLYLQMNSLRAEDTAVYYCARANSSSWYDWYFDLWGQGTLVTVSS
VL: not shown
notes: IgG format

These binders were tested against T1, human MAdCAM expressed on cells (assay: cell binding).

binding result	Binder
binds	B1
binds	B2
binds	B3
binds	B4
binds	B5
binds	B6
binds	B7
binds	B8
binds	B9
binds	B10
binds	B11
binds	B12

The binders below were run against T2, mouse MAdCAM expressed on cells (assay: cell binding).

binding result	Binder
no binding	B13
no binding	B1
no binding	B2
binds	B3
no binding	B4
no binding	B14
no binding	B5
no binding	B6
no binding	B7
no binding	B15
no binding	B16
no binding	B8
no binding	B9
no binding	B17
no binding	B10
no binding	B11
no binding	B12

Target: T2, mouse MAdCAM expressed on cells
Test: cell binding
Remark: another data set of the same source

binding result	Binder
no binding	B18
